Columns and labels:
[1] = molecular target: T1, Mex67 (in Mex67-Mtr2 heterodimer);Mtr2 (in Mex67-Mtr2 heterodimer) (Saccharomyces cerevisiae;Saccharomyces …, UniProt Q99257;P34232 1-599;1-184, |); assay: competition; N4 added to complex preformed on N1; labels switched, same effect; 30 mM HEPES-KOH, 160 mM KCl, pH 7.6, Ribolock, 30 C 15 min; 4 uM RNA with 4-44 uM Mex67-Mtr2 (competition 3 uM RNA, 12 uM protein); 0.5% agarose, 1x TAE pH 9.5, 4 C; details: protein: recombinant;recombinant; HisFF purification;; copies: 1;1; label: Cy5 on one strand; blunt
T1 sequence 1: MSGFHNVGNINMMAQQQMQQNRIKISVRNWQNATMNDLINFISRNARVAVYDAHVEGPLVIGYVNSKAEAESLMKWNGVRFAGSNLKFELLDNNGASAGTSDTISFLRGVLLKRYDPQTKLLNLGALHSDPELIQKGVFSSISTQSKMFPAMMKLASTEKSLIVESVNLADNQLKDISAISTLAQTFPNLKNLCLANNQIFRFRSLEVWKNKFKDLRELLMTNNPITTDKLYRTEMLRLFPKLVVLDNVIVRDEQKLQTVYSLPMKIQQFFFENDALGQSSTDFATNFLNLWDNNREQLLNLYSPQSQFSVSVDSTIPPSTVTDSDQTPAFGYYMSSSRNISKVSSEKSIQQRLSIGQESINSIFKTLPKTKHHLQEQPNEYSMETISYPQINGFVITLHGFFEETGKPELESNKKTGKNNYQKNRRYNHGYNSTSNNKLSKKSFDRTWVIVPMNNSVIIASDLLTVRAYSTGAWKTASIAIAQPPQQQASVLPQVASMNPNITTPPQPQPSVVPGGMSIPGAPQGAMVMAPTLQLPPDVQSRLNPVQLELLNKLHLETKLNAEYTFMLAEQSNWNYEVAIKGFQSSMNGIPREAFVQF
T1 sequence 2: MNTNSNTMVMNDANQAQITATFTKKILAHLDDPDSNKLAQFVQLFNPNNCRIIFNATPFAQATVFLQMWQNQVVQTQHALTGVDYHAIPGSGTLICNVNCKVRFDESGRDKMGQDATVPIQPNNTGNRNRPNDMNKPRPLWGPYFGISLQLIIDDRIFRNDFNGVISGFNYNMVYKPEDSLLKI

[2] = molecular target: T1, Mex67 (in Mex67-Mtr2 heterodimer);Mtr2 …; assay: EMSA; 4 uM RNA; full upshift at 2-fold, saturated at 5-fold molar excess; 30 mM HEPES-KOH, 160 mM KCl, pH 7.6, Ribolock, 30 C 15 min; 4 uM RNA with 4-44 uM Mex67-Mtr2 (competition 3 uM RNA, 12 uM protein); 0.5% agarose, 1x TAE pH 9.5, 4 C; details: protein: recombinant;recombinant; HisFF purification;; copies: 1;1; label: FAM; single strand
[3] = molecular target: T1, Mex67 (in Mex67-Mtr2 heterodimer);Mtr2 …; assay: EMSA; 4 uM RNA; full upshift at 3-fold, saturated at 10-fold molar excess; 30 mM HEPES-KOH, 160 mM KCl, pH 7.6, Ribolock, 30 C 15 min; 4 uM RNA with 4-44 uM Mex67-Mtr2 (competition 3 uM RNA, 12 uM protein); 0.5% agarose, 1x TAE pH 9.5, 4 C; details: protein: recombinant;recombinant; HisFF purification;; copies: 1;1; label: FAM on one strand; blunt

B1: 36-bp dsRNA, Cy5 (dsRNA)
RNA 1: UUAUAUGUCUUGUUCUCUUGUAUCUGUUCUUGUUGU
RNA 2: ACAACAAGAACAGAUACAAGAGAACAAGACAUAUAA
B1: binds [1].

UUUUUUUUAUUGCCUGGUUGCCUGGUUAUUUCUAUU (ssRNA) [36-nt ssRNA, FAM]: binds [2].

B2: 36-bp dsRNA, FAM (dsRNA)
RNA 1: UUUUUUUUAUUGCCUGGUUGCCUGGUUAUUUCUAUU
RNA 2: AAUAGAAAUAACCAGGCAACCAGGCAAUAAAAAAAA
B2: binds [3].

Reference: PMC11236707, “dsRNA formation leads to preferential nuclear export and gene expression”
